Response data for 7 variants are collected here from paper PMC6044281, “Cooperative Domain Formation by Homologous Motifs in HOIL-1L and SHARPIN Plays A Crucial Role in LUBAC Stabilization” (Cell reports, 2018).

B1: mHOIL-1L_(1–140) [mouse] / GST-mHOIP_(466–630) [mouse] (parent complex)
chain 1: MDEKTKKAEEMALSLARAVAGGDEQAAIKYATWLAEQRVPLRVQVKPEVSPTQDIRLCVSVEDAYMHTVTIWLTVRPDMTVASLKDMVFLDYGFPPSLQQWVVGQRLARDQETLHSHGIRRNGDGAYLYLLSARNTSLNP
chain 2: SCGDPEKQRQDKMRKEGLQLVSMIQEGETAGASPEEVFSALQYSGTEVPLQWLRSELSYVLEMVAELAGQQDPELGAFSCQEARKAWLDRHGNLDEAVEECVRARRRKVHELQSLGFGPKEGSLQALFQHGGDVARALTELQRQRLEPFHQRLWDRDPEPTPCWD
B2: mSHARPIN_(163–301) [mouse] / GST-mHOIP_(466–630) [mouse] (parent complex)
chain 1: SSGNFKKEELATRLSQAIAGGDEKAAAQVAAVLAQHHVALNVQLMEAWFPPGPIRLQVTVEDATSVLSSSSSAHVSLKIHPHCSIAALQDQVFSEFGFPPAVQRWVIGRCLCMPERSLASYGVSQDGDPAFLYLLSAPR
chain 2: B1 chain 2
B3: mHOIL-1L_(1–140) and mSHARPIN_(163–301) applied together [mouse] / GST-mHOIP_(466–630) [mouse] (parent complex)
chain 1: B1 chain 1
chain 2: B2 chain 1
chain 3: B1 chain 2
B4: MBP-mSHARPIN UBL_(163–301) [mouse] / mHOIL-1L_(1–189)-strep [mouse] (parent complex)
chain 1: B2 chain 1
chain 2: MDEKTKKAEEMALSLARAVAGGDEQAAIKYATWLAEQRVPLRVQVKPEVSPTQDIRLCVSVEDAYMHTVTIWLTVRPDMTVASLKDMVFLDYGFPPSLQQWVVGQRLARDQETLHSHGIRRNGDGAYLYLLSARNTSLNPQELQRQRQLRMLEDLGFKDLTLQSRGPLEPVLPKPRTNQEPGQPDAAPE

The variants in the first experiment derive from B1. Description: SPR; response read at end of injection (about 180 s); GST-mHOIP D-UBA UBA1mut immobilized with anti-GST antibody; read off a plot.
For chain 2 R9A, chain 2 L18A, chain 2 V21A, the response is about 60 RU.

The variants in the next experiment derive from B1. Description: SPR; response read at end of injection (about 180 s); GST-mHOIP D-UBA UBA2mut immobilized with anti-GST antibody; read off a plot.
Regarding chain 2 Q142A, chain 2 L146A, chain 2 F149A, the response is about -3 RU.

The variants in the next experiment derive from B2. The experiment can be described thus: SPR; response read at end of injection (about 180 s); GST-mHOIP D-UBA UBA1mut immobilized with anti-GST antibody; read off a plot.
For chain 2 R9A, chain 2 L18A, chain 2 V21A, the response was about 0 RU.

Variants of B2 are the subject of the next experiment. Description: SPR; response read at end of injection (about 180 s); GST-mHOIP D-UBA UBA2mut immobilized with anti-GST antibody; read off a plot.
In the case of chain 2 Q142A, chain 2 L146A, chain 2 F149A, the response was about 5 RU.

A further experiment covers variants of B3. The experiment can be described thus: SPR; response read at end of injection (about 180 s); GST-mHOIP D-UBA UBA1mut immobilized with anti-GST antibody; read off a plot.
For chain 3 R9A, chain 3 L18A, chain 3 V21A, the response is about 170 RU.

The variants in another experiment derive from B3. Description: SPR; response read at end of injection (about 180 s); GST-mHOIP D-UBA UBA2mut immobilized with anti-GST antibody; read off a plot.
chain 3 Q142A, chain 3 L146A, chain 3 F149A: the response was about 120 RU.

In another experiment the parent is B4. Description: SPR; analyte 40 mM as printed in the legend; response read at end of injection (about 175 s); mHOIL-1L1-189-strep immobilized with anti-strep antibody; parent: 45; read off a plot.
Take chain 1 L14A, chain 1 I18A: the response was about 3 RU.
